Measurements published in patent US20120021972A1 (CADILA HEALTHCARE, published 2012).
Starred links: 1 amine or outer side, 2 acyl side, 3 side chain; linkers in the order of their positions; H or OH if unused. Non-standard residues stand in square brackets, D forms with d. No end group written: not given here. *: point of attachment. ACPP = 2-amino-5-(3-chlorophenyl)pentanoic acid, O=C([C@H](CCCc1cccc(Cl)c1)N[*:1])[*:2]; 2F,4CF3‑APPA = 2-amino-5-(2-fluoro-4-(trifluoromethyl)phenyl)pentanoic acid; Bip(2'-Et-4'-OMe) = CCc1cc(OC)ccc1-c1ccc(C[C@H](N)C(=O)O)cc1; Nva(5-(3,5-Me2Ph)) = Cc1cc(C)cc(CCC[C@H](N)C(=O)O)c1; 2F‑APPA = 2-amino-5-(2-fluorophenyl)pentanoic acid; αMePhe(2-F) = C[C@](N)(Cc1ccccc1F)C(=O)O; NMeBip(OMe) = N-methylated Bip(OMe); hhPhe = N[C@@H](CCCc1ccccc1)C(=O)O; aThr = C[C@H](O)[C@H](N)C(=O)O; NMeAPPA = not defined here; Ac5c = NC1(C(=O)O)CCCC1; CNB = not defined here; Aib = CC(C)(N)C(=O)O; Moc = COC(=O)*

Target: human glucagon receptor (human, UniProt P47871 26-477)
Test: cell-based or functional assay

Binder	inhibition of cAMP production, 1 nM [pmol/ml/µg prt]	inhibition of cAMP production, 10 nM [pmol/ml/µg prt]	inhibition of cAMP production, 100 nM [pmol/ml/µg prt]	inhibition of cAMP production, 1 µM [pmol/ml/µg prt]	inhibition of cAMP production, 10 µM [pmol/ml/µg prt]
Moc-H[Aib]QG[aThr][αMePhe(2-F)][aThr]SD[Bip(2'-Et-4'-OMe)][2F‑APPA] (also: reduced (CH2) bond between 10 and 11) [Seq. ID. No. 188: CH3OCO-H-Aib-QG-T(allo)-(α-Me-2F-Phe)-T(allo)-SD-Bip(OMe)-(CH2)-(2F-APPA)]	5	3	1	0	0
H[Aib]QGTFTSD[Bip(2'-Et-4'-OMe)][2F,4CF3‑APPA] [Seq. ID. No. 65: H-Aib-QGTFTSD-Bip(OMe)-(2F,4CF3-APPA)]	10	8	6	4	1
H-HSQGTFTSD[Bip(2'-Et-4'-OMe)][hhPhe]-NH2 [Seq. ID. No. 5: HSQGTFTSD-Bip(OMe)-(APPA)]	6	5	3	0	0
HSQGTFTSD[Bip(2'-Et-4'-OMe)][2F,4CF3‑APPA] [Seq. ID. No. 49: HSQGTFTSD-Bip(OMe)-(2F, 4CF3-APPA)]	10	8	6	2	0
H[Aib]QG[aThr][αMePhe(2-F)][aThr]SD[Bip(2'-Et-4'-OMe)][2F‑APPA] (also: reduced (CH2) bond between 10 and 11) [Seq. ID. No. 191: H-Aib-QG-T(allo)-(α-Me-2F-Phe)-T(allo)-SD-Bip(OMe)-(CH2)-(2F-APPA)]	4	2	2	0	0
Ac-H[Aib]QG[aThr][αMePhe(2-F)][aThr]SD[Bip(2'-Et-4'-OMe)][2F‑APPA] (also: reduced (CH2) bonds between 9-10 and 10-11) [Seq. ID. No. 199: CH3CO-H-Aib-QG-T(allo)-(α-Me-2F-Phe)-T(allo)-SD-(CH2)-Bip(OMe)-(CH2)-(2F-APPA)]	4	3	0	0	0
H[Aib][CNB]GTFTSD[Bip(2'-Et-4'-OMe)][ACPP] (reading uncertain) [Seq. ID. No. 31: H-Aib-(CNB)-GTFTSD-Bip(OMe)-(ACPP)]	6	5	2	0	0
H[Aib]QG[aThr][αMePhe(2-F)][aThr]SD[Bip(2'-Et-4'-OMe)][hhPhe] (also: thioamide bonds between residues 9-10 and 10-11) [Seq. ID. No. 177: H-Aib-QG-T(allo)-(α-Me-2F-Phe)-T(allo)-SD-(C═S)-Bip(OMe)-(C═S)-(APPA)]	0	0	0	0	0
Moc-H[Aib]QGT[αMePhe(2-F)]TSD[Bip(2'-Et-4'-OMe)][2F‑APPA] (also: thioamide bonds between residues 9-10 and 10-11) [Seq. ID. No. 172: CH3OCO-H-Aib-QGT-(α-Me-2F-Phe)-TSD-(C═S)-Bip(OMe)-(C═S)-(2F-APPA)]	4	2	0	0	0
H[Ac5c]QGTFTSD[Bip(2'-Et-4'-OMe)][Nva(5-(3,5-Me2Ph))] [Seq. ID. No. 26: H-(APP)-QGTFTSD-Bip(OMe)-(ADMP)]	15	12	8	4	2
H[Aib]QG[aThr][αMePhe(2-F)][aThr]SD[Bip(2'-Et-4'-OMe)][hhPhe] (also: reduced (CH2) bond between 10 and 11) [Seq. ID. No. 189: H-Aib-QG-T(allo)-(α-Me-2F-Phe)-T(allo)-SD-Bip(OMe)-(CH2)-(APPA)]	3	1	0	0	0
H[Aib][CNB]G[aThr][αMePhe(2-F)][aThr]SD[NMeBip(OMe)][NMeAPPA] (reading uncertain) [Seq. ID. No. 142: H-Aib-(CNB)-G-T(allo)-(α-Me-2F-Phe)-T(allo)-SD-((NMe)Bip(OMe))-((NMe)(APPA))]	10	8	6	2	0
H[Aib][CNB]G[aThr][αMePhe(2-F)][aThr]SD[Bip(2'-Et-4'-OMe)][2F‑APPA] (reading uncertain; also: reduced (CH2) bond between 10 and 11) [Seq. ID. No. 192: H-Aib-(CNB)-G-T(allo)-(α-Me-2F-Phe)-T(allo)-SD-Bip(OMe)-(CH2)-(2F-APPA)]	4	2	0	0	0
